target: Siglec-7 and/or Siglec-9 on fresh purified human NK cells; assay: flow cytometry on fresh purified human NK cells, mean of 4 donors

| Binder | EC50 [µg/mL] |
| --- | --- |
| mAb1 (antibody, human IgG1, V domains shown) VH: DVQLQESGPGLVKPSQSLSLTCTVTGYSITGGFAWNWIRQFPGNTLEWMGYIGYGGSTSYNPSLNSRISITRDTSKNHFFLQFNSVTTDDSATYYCARGDYLFAYWGQGTLVTVSA VL: DIVMTQSHKFMSTSVGDRVSITCKASQDVNTAVAWYQQKPGQSPKLLIYSASYRYTGVPDRFTGSGSGTDFTFTISSVQAEDLAVYYCQQHYSTPRTFGGGTKLEIK | 0.05 |
| mAb2 (antibody, human IgG1, V domains shown) VH: EVQLQESGPGLVKPSQSLSLTCTVTGYSITGGFAWNWIRQFPGNTLEWMGYIGYGGSTSYNPSLNSRISITRDTSKNHFFLQFNSVTTEDSATYYCARGDYLFAYWGQGTLVTVSA VL: DIVMTQSHKFMSTSVGDRVSITCKASQDVNTAVAWYQQKPGQSPKLLIYSASYRYTGVPDRFTGSGSGTDFTFTISSVQAEDLAVYYCQQHYSTPRTFGGGTKLEIK | 0.07 |
| mAb3 (antibody, human IgG1, V domains shown) VH: EVQLLETGPGLVKPSQSLSLTCTVTGYSITGGFAWNWIRQFPGNTLEWMGYIGYGGSTSYNPSLNSRISITRDTSKNHFFLQFNSVTTEDSATYYCARGDYLFAYWGQGTLVTVSA VL: DILMTQSPASLSASVGETVSITCRASGNIHNYLAWYLQRQGKSPQLLVYNAKTLADGVPSRFSGTGSGTQFSLKINSLQPEDFGSYYCQHFWSTPRTFGGGTKLEIK | 0.19 |
| mAb4 (antibody, human IgG1, V domains shown) VH: DVQLVESGGDLVKPGGSLKLSCAASGFAFSSYDMSWVRQSPEKRLEWIAHIGSGGGNIYYPDTVKGRFTISRDNAKNTLYLQMRSLKSEDTAMYYCARLIFTTGFYGMDYWGQGTSVTVSS VL: DIQMTQTTSSLSASLGDRVTISCRASQDISSYLNWYQQKPDGTIKLLIYYTSRLHSGVPSRFSGSGSGTDYSLTISNLDQDDIATYFCQQGNALPWTFGGGTKLEIK | 0.61 |
| mAb5 (antibody, human IgG1, V domains shown) VH: EIQLQQSGPELEKPGASVKISCKASGYSFSDYNMNWVKQSNGKSLEWIGNIDPYYGATSYNQRFKGKATLTVDKSSSTAYMQLKSLTSEDSAVYYCARGDSLFAYWGHGTLVTVSA VL: DIVMTQSQEFMSTSLGDRVSVTCKASQNVGTNVAWYQQKPGQSPKALLYSASSRYSGVPDRFTGSGSGTDFTLTISNVQSEDLAEYFCQQYITYPYTFGGGTKLEIK | 1.27 |
| mAb6 (antibody, human IgG1, V domains shown) VH: EIQLQQSGPELEKPGASVKISCKASGYSFSDYNMNWVKQSNGKSLEWIGNIDPYYGATSYNQRFKGKATLTVDKSSSTAYMQLKSLTSEDSAVYYCARGDSLFAYWGQGTLVTVSA VL: DIVMTQSQEFMSTSLGDRVSVTCKASQNVGTNVAWYQQKPGQSPKALLYSASSRYSGVPDRFTGSGSGTDFTLTINNMQSEDLAEYFCQQYITYPYTFGGGTKLEIK | 1.3 |

— patent US20200369765A1
